Assay [1] has as its target T1, EGFR extracellular domain (R&D Systems) (UniProt P00533 25-645, limits assumed). In words: SPR, full length antibody over EGFR chip. A general note: SPR reads the build-up and loss of mass on a sensor chip optically.
For assay [2], the target named is T1, EGFR extracellular domain (R&D Systems). In words: SPR, Fab over EGFR ECD on CM5 chip.
The target is the same in assay [3]. In words: SPR, Fab over EGFR on CM5 chip.

Positions count from the first letter of the chain named.

B1: C225 L4/H8 full length antibody (antibody, IgG1, V domains shown)
VH: QVQLVESGGGLVQPGRSLRLSCAVSGFSLTNYGVHWVRQAPGKGLEWVSVIWSGGNTDYNTSVKGRFTISKDNSKSTVYLQMNSLRAEDTAVYYCARALTYYDYEFAYWGQGTLVTVSS
VL: DILLTQSPAFLSVTPGEKVTITCRASQSIGTNIHWYQQKPDQSPKLLIKYASESISGIPSRFSGSGSGTDFTLTINSLEAEDAATYYCQQNNNWPTTFGAGTKLEIK
With B1, the binding result in assay [1] is reported as “binds”.

B2: C225 L2/H3 Fab (Fab, V domains shown)
VH: QVQLQQSGPGLVKPSQTLSLTCTVSGFSLTNYGVHWVRQAPGKGLEWLGVIWSGGNTDYNTSLKSRLTISKDNSKSQVVLQMNSLRAEDTAVYYCARALTYYDYEFAYWGQGTLVTVSS
VL: DILLTQSPATLSLSPGERVTLSCRASQSIGTNIHWYQQKPDQSPKLLIKYASESISGIPSRFSGSGSGTDFTLTISSLQPEDFADYYCQQNNNWPTTFGAGTKLEIK
In general, Kd refers to the constant that tells how readily two partners part at equilibrium. Low values mean higher affinity, high ones lower affinity. For orientation: koff means the first-order rate constant of dissociation. The term kon denotes a measure of how fast the partners come together. Lower therefore signals slower complex formation. In assay [2], B2 returned a Kd of 192 nM, a dissociation rate constant (koff) of 0.00535 s⁻¹ and a kon of 27900 M⁻¹ s⁻¹.

B3: C225 L4/H4 full length antibody (antibody, IgG1, V domains shown)
VH: B2 VH with Q81T, N83T, S84N, L85M, R86D, A87P, E88V, V92T
VL: B1 VL
For B3, the binding result in assay [1] was “binds”.

B4: C225 L4/H6 full length antibody (antibody, IgG1, V domains shown)
VH: B2 VH with L48V, L63V, S65G, L67F, V79Y
VL: B1 VL
Regarding B4, the binding result in assay [1] is given as “binds”.

B5: C225 L4/H5 full length antibody (antibody, IgG1, V domains shown)
VH: B2 VH with S62P, K64T, S70N
VL: B1 VL
Take B5: in assay [1], the binding result is recorded as “binds”.

B6: C225 L4/H7 full length antibody (antibody, IgG1, V domains shown)
VH: B2 VH with A40P, L48I, L67V, V79S, Q81K, M82L, N83S, L85V, R86T, E88A
VL: B1 VL
As to B6, the binding result in assay [1] was “binds”.

B7: C225 L2/H4 Fab (Fab, V domains shown)
VH: B2 VH with Q81T, N83T, S84N, L85M, R86D, A87P, E88V, V92T
VL: B2 VL
In assay [2], B7 showed a Kd of 264 nM, an off-rate (koff) of 0.00473 s⁻¹ and a kon of 17900 M⁻¹ s⁻¹.

B8: ICR62 WT Fab (Fab, V domains shown)
VH: QVNLLQSGAALVKPGASVKLSCKGSGFTFTDYKIHWVKQSHGKSLEWIGYFNPNSGYSTYNEKFKSKATLTADKSTDTAYMELTSLTSEDSATYYCTRLSPGGYYVMDAWGQGASVTVSS
VL: DIQMTQSPSFLSASVGDRVTINCKASQNINNYLNWYQQKLGEAPKRLIYNTNNLQTGIPSRFSGSGSGTDYTLTISSLQPEDFATYFCLQHNSFPTFGAGTKLELK
Regarding B8, in assay [3], the Kd was determined as 0.257 nM, the koff amounted to 2.53e-05 s⁻¹ and the kon turned out to be 98600 M⁻¹ s⁻¹.

B9: ICR62 L2/H9 Fab (Fab, V domains shown)
VH: QVQLQQSGPGLVKPGASVKVSCKGSGFTFTDYKIHWVRQAPGKSLEWMGYFNPNSGYSTYNEKFQGRVTITADKSTDTAYMELSSLRSEDTAVYYCTRLSPGGYYVMDAWGQGTLVTVSS
VL: B8 VL with F10S, N22T, K24R, L40P, E42K, L105I
In assay [3], B9 showed a Kd of 0.45 nM, a koff of 0.000106 s⁻¹ and an association rate constant (kon) of 235000 M⁻¹ s⁻¹.

The record behind these values is patent US7657380.
